The nature of this series: Phosphatase assay (Malachite Green) of purified UppP. The class given is biochemical, E. coli. The following applies: 100 μM Fpp as model substrate, 37° C., 0.2% DDM, pH 7.5. The procedure:
UppP activity was determined by the Malachite Green assay using Phosphate Colorimetric Assay Kit purchased from BioVision. The enzymatic assay reaction mixture (200 μl) containing 50 mM Tris-HCl, pH 7.5, 150 mM NaCl, 0.2% DDM, 100 μM substrate (Fpp) and appropriately diluted purified UppP was incubated at 37° C. The reaction was quenched by adding 30 μl of Malachite Green Reagent and then the tubes were incubated for 30 min at room temperature. After incubation, the reaction mixture was transferred to 96-well plates and the released phosphate that reacted with Malachite Green was measured at 650 nm according to the reaction time course. The amounts of released phosphate were quantified relative to a phosphate standard curve.
For testing the phosphatase activity of UppP, assays were performed in the presence of various substrates using Malachite Green assay. Since the intended substrate, Upp, was difficult to synthesize and purify (Ghachi et al. Id.), we used farnesyl pyrophosphate (Fpp) as a model substrate. It was previously reported that another E. coli undecaprenyl pyrophosphate phosphatase, PgpB, which has no sequence homology with UppP, catalyzed the dephosphorylation of Upp with a relatively low efficiency compared to diacylglycerol pyrophosphate and farnesyl pyrophosphate lipid substrates. In our activity assay test, Fpp was a suitable substrate for UppP.

B1: UppP: E. coli integral membrane enzyme undecaprenyl pyrophosphate phosphatase purified from the HmBRI/D94N fusion expression system (protein, UniProt P60932 1-273, looked up)
Undecaprenyl-diphosphatase: MSDMHSLLIAAILGVVEGLTEFLPVSSTGHMIIVGHLLGFEGDTAKTFEVVIQLGSILAVVVMFWRRLFGLIGIHFGRPLQHEGESKGRLTLIHILLGMIPAVVLGLLFHDTIKSLFNPINVMYALVVGGLLLIAAECLKPKEPRAPGLDDMTYRQAFMIGCFQCLALWPGFSRSGATISGGMLMGVSRYAASEFSFLLAVPMMMGATALDLYKSWGFLTSGDIPMFAVGFITAFVVALIAIKTFLQLIKRISFIPFAIYRFIVAAAVYVVFF
Regarding B1, the “time-dependent phosphatase activity (released phosphate)” value is on record as “functional protein capable of releasing free phosphate”.

Values taken from patent US9067985B2, “Bacteriorhodopsin fusion membrane protein expression system” (Academia Sinica, priority 2012, dated 2015).
